Key:
human Claudin18.2 [1] = biological target: T1, human Claudin18.2 (Homo sapiens, UniProt P56856); test: Cell-based ELISA affinity of humanized antibodies on L929-Claudin18.2 (human) cells; type: binding; conditions: L929-Claudin18.2 cells
T1 construct: expressed in transfected cells

human Claudin18.2 [2] = biological target: T1, human Claudin18.2; test: Cell-based ELISA affinity of humanized antibodies on HEK293T-Claudin18.2 (human) cells; type: binding; conditions: HEK293T-Claudin18.2 cells
Method: The affinity of the anti-human Claudin18.2 murine monoclonal antibodies was evaluated by cell-based ELISA. The experimental procedures were as follows: The day before the experiment, HEK293T-Claudin18.2 (human) cells were plated in a 96-well plate at 5×10^4 cells/well. On the day of the experiment, the supernatant was removed, the cells in each well were washed once with 300 μL of PBS, and 100 μL of 4% paraformaldehyde was added to each well for fixation at room temperature for 20 min. Paraformaldehyde was then removed, and the cells in each well were washed twice with 300 μL of PBS. 100 μL of 2% BSA (in PBS) was added to each well, and the mixture was blocked at 37° C. for 2 h. After removing the blocking solution, each antibody subjected to gradient dilution (diluted with 2% BSA (in PBS), starting at […], in a 3-fold gradient, for a total of 11 concentration points) was added to the plate at 100 μL/well, and the mixture was incubated at 37° C. for 2 h. The supernatant was removed, and the cells in each well were washed three times with 300 μL of PBST. 100 μL of an anti-mouse IgG HRP secondary antibody (Jackson, cat #115-035-003) in 2% BSA was added to each well, and the mixture was incubated at 37° C. for 1 h. The secondary antibody was then removed, and the cells in each well were washed five times with 300 μL of PBST, followed by the addition of 100 μL of a TMB substrate (Huzhou InnoReagents Co., Ltd.) per well for color development for 5-20 min. The reaction was stopped by adding 50 μL of 2 N HCl to each well, and OD450 nm values were read on a microplate reader (manufacturer: MD, model: SpectraMax). The values obtained were plotted by GraphPad Prism to calculate the EC50 value.
The affinity of the anti-human Claudin18.2 humanized monoclonal antibodies was determined by cell-based ELISA. The cell-based ELISA was conducted as described in Example I-3.

human Claudin18.2 [3] = biological target: T1, human Claudin18.2; test: Cell-based ELISA affinity on NUGC4 cells endogenously expressing human Claudin18.2; type: binding
human Claudin18.2 [4] = biological target: T1, human Claudin18.2; test: Cell-based FACS affinity on HEK293T-Claudin18.2 (human) cells; type: binding
Method: The affinity of the anti-human Claudin18.2 humanized antibodies was detected by flow cytometry. The experimental procedures were as follows: The adherent cultured HEK293T-Claudin18.2 (human), NUGC4-Claudin18.2 (human) and NUGC4 cells were digested, collected by centrifugation, and washed three times with pre-cooled PBS. The cells were resuspended in 1% BSA (in PBS) and added to a 96-well pointed bottom plate at 3×10^5 cells/well, with a volume of 50 μL per well. Each test antibody was diluted with 1% BSA (in PBS) (starting at 100 μg/mL, diluted in a 3-fold gradient, for 10 concentration points). The test antibody subjected to gradient dilution was added to the cells at 50 μL/well, and the mixture was well mixed and incubated at 4° C. for 1 h. The cells were collected by centrifugation, washed three times with pre-cooled PBS, and resuspended in 50 μL of 1% BSA (in PBS). 1 μL of a fluorescent secondary antibody (Biolegend-410712) was added to each well, and the mixture was well mixed and incubated at 4° C. for 0.5 h. The cells were collected by centrifugation, washed three times with pre-cooled PBS, resuspended in 200 μL of PBS, and assayed on a machine.

[5] = test system: cynomolgus monkey Claudin18.2; test: FACS species affinity on HEK293T-Claudin18.2 (cynomolgus monkey) cells; type: binding; conditions: cell-based FACS
Method: The affinity of the anti-human Claudin18.2 humanized monoclonal antibodies for Claudin18.2 of different species was determined by flow cytometry (FACS). The experimental procedures were as follows: HEK293T-Claudin18.2 (cynomolgus monkey) cells, HEK293T-Claudin18.2 (mouse) cells and HEK293T-Claudin18.2 (rat) cells were digested, collected by centrifugation, washed three times with pre-cooled PBS, resuspended in 1% BSA (in PBS), and added to a 96-well pointed bottom plate at 3×10^5 cells/well. Each antibody subjected to gradient dilution was added, and the mixture was incubated at 4° C. for 1 h. The cells were washed three times with pre-cooled PBS, and then 1 μL of a fluorescent secondary antibody (APC: Biolegend-410712) was added to each well. The mixture was incubated at 4° C. for 0.5 h, and the cells were washed three times with pre-cooled PBS, then resuspended, and assayed on a flow cytometer.

human Claudin18.1 = biological target: T2, human Claudin18.1 (Homo sapiens, UniProt P56856); test: FACS specificity of humanized antibodies on HEK293T-Claudin18.1 (human) cells; type: binding; conditions: antibody 50 μg/mL, APC secondary antibody
T2 construct: expressed in transfected cells
Method: The specificity of the anti-human Claudin18.2 humanized monoclonal antibodies was determined by flow cytometry (FACS). The experimental procedures were as follows: HEK293T-Claudin18.1 (human) cells were digested, collected by centrifugation, washed three times with pre-cooled PBS, resuspended in 1% BSA (in PBS), and added to a 96-well pointed bottom plate at 3×10^5 cells/well. Each test antibody with a final concentration of 50 μg/mL was added, and the mixture was incubated at 4° C. for 1 h. The cells were washed three times with pre-cooled PBS, and then 1 μL of a fluorescent secondary antibody (APC: Biolegend-410712 or PE: BioLegend-410708) was added to each well. The mixture was incubated at 4° C. for 0.5 h, and the cells were washed three times with pre-cooled PBS, then resuspended, and assayed on a flow cytometer. For reference, anti-human Claudin18.1 positive control antibodies (positive control antibody-1 and positive control antibody-2) were included in the experiment.

[6] = test system: HEK293T-Claudin18.2 (human) cells; test: ADCC activity, fluorescein reporter system (Jurkat-NFAT-CD16a); type: cell-based; conditions: HEK293T-Claudin18.2 (human) target cells, 5 h
Method: ADCC activity of the anti-human Claudin18.2 humanized monoclonal antibodies was detected by a fluorescein reporter system. The experiment was carried out using a Rhinogen® Bio-Glory One-Step Firefly Luciferase Assay kit (Suzhou Rhino Bio, RA-GL04), following the manufacturer's instructions. The experimental procedures were as follows: HEK293T-Claudin18.2 (human) cells were digested, collected by centrifugation, resuspended in DMEM+1% FBS, and then plated at 50000 cells/well. Jurkat-NFAT-CD16a cells were collected by centrifugation and resuspended in 1640+1% FBS, and then plated at 100000 cells/well. Each test antibody subjected to gradient dilution was added, and the mixture was incubated at 37° C. for 5 h. 50 μL of a Bio-Glory One-Step luciferase substrate was added to each well, and readings were taken on a microplate reader (MD, SpectraMax i3x).

[7] = test system: HEK293T-Claudin18.2 (human) cells; test: CDC activity, guinea pig serum killing experiment; type: cell-based; conditions: 20% guinea pig serum, 5 h
Method: CDC activity of the anti-human Claudin18.2 humanized monoclonal antibodies was detected by a guinea pig serum killing experiment. The experimental procedures were as follows: HEK293T-Claudin18.2 (human) cells were digested, collected by centrifugation, plated at 50000 cells/well, and incubated overnight. The supernatant was discarded, and 100 μL of each test antibody subjected to gradient dilution with DMEM+20% guinea pig serum (Beijing Bersee, BM361Y) was added to each well. The mixture was incubated at 37° C. for 5 h, and 20 μL of a CCK8 reagent (Suzhou Rhino Bio, QDY-003-D) was added to each well. The mixture was allowed to react for 1-4 h, and readings were taken at 450 nm on a microplate reader.

Affinity detected by cell-based ELISA (EC50, ng/mL) L929-Claudin18.2 (human Claudin18.2 [1]): 17.12 ± 0.85(N = 2) ng/mL | Affinity detected by cell-based ELISA (EC50, ng/mL) HEK293T-Claudin18.2 (human Claudin18.2 [2]): 12.67 ± 2.1(N = 2) ng/mL | NUCG4 EC50 (human Claudin18.2 [3]): 0.09518 µg/mL | NUCG4 Maximum signal value (human Claudin18.2 [3]; OD450): 0.316 | HEK293T-Claudin18.2 EC50 (human Claudin18.2 [4]): 0.3687 µg/mL | HEK293T-Claudin18.2 Maximum signal value (human Claudin18.2 [4]): 132603 | HEK293T-Claudin18.2 (cynomolgus monkey) EC50 [5]: 0.1719 µg/mL | Mean APC fluorescence signal value (human Claudin18.1): 281 | Median APC fluorescence signal value (human Claudin18.1): 233 | Positive rate (%) (human Claudin18.1): 0.69%
B1: 2D3A11-HZ1: humanized anti-Claudin18.2 antibody, VH SEQ ID NO: 38, VL SEQ ID NO: 39 (antibody, V domains shown)
VH: QVQLVQSGAEVKKPGASVKVSCKASGYTFTSYVVHWVRQAPGQGLEWMGYINPYNADSKYSQEFQGRATLTSDKSASTAYMELSSLRSEDMAVYYCSRSYYGNSFDVWGQGTLVTVSS
VL: DIVMTQSPDSLAVSLGERATINCKSSQSLLNSGNQKNYLTWYQQKPGQSPKLLFFWASTRQSGVPDRFSGSGSGTDFTLTISSLQAEDVAVYYCQNDYYFPFTFGQGTKVEIK
ADCC activity EC50 [6]: 0.04791 µg/mL | CDC activity EC50 [7]: 1.904 µg/mL

Reference: patent US20260201030A1, “ANTIBODY, ANTIBODY-DRUG CONJUGATE THEREOF AND USE THEREOF” (EVOPOINT BIOSCIENCES CO., LTD., priority 2021, published 2026)
